According to patent publication US20160052997A1:
Several values for one entry are separate records, joined by “and”; a condition that tells them apart may be missing. Identical values can stand only once. Like-named read-outs stand apart in the source and are kept apart here.

Assays:
[1] = target: purified recombinant HA protein of H7N9 (A/Anhui/1/2013) (Influenza A virus A/Anhui/1/2013 (H7N9))
[2] = target: purified recombinant HA protein of H1N1 (A/Ohio/07/09) (Influenza A virus A/Ohio/07/09 (H1N1)); assay: SPR, Biacore T200, HA captured via anti-6x his tag antibody, 25 C
[3] = target: purified recombinant HA protein of H1N1 (A/Texas/05/09) (Influenza A virus A/Texas/05/09 (H1N1)); assay: as above
[4] = target: purified recombinant HA protein of H7N7 (A/England/268/96) (Influenza A virus A/England/268/96 (H7N7)); assay: as above
[5] = target: purified recombinant HA protein of H3N2 (A/Brisbane/10/07) (Influenza A virus A/Brisbane/10/07 (H3N2)); assay: as above
[6] = target: purified recombinant HA protein of H3N2 (A/Philippines/2/82) (Influenza A virus A/Philippines/2/82 (H3N2)); assay: as above
[7] = target: purified recombinant HA protein of H3N2 (A/Wisconsin/67/05) (Influenza A virus A/Wisconsin/67/05 (H3N2)); assay: as above
[8] = target: purified recombinant HA protein of H5N1 (A/Vietnam/1203/04) (Influenza A virus A/Vietnam/1203/04 (H5N1)); assay: as above
[9] = target: purified recombinant HA protein of H7N9 (A/Shanghai/1/2013) (Influenza A virus A/Shanghai/1/2013 (H7N9)); assay: as above
[10] = target: purified recombinant HA protein of H7N9 (A/Anhui/1/2013) (Influenza A virus A/Anhui/1/2013 (H7N9)); assay: as above
[11] = target: purified recombinant HA protein of H3N2 (A/Wisconsin/67/05) (Influenza A virus A/Wisconsin/67/05 (H3N2))
[12] = target: purified recombinant HA protein of H3N2 (A/Philippines/2/82) (Influenza A virus A/Philippines/2/82 (H3N2))
[13] = target: purified recombinant HA protein of H7N9 (A/Shanghai/1/2013) (Influenza A virus A/Shanghai/1/2013 (H7N9))
[14] = target: purified recombinant HA protein of H1N1 (A/Texas/05/09) (Influenza A virus A/Texas/05/09 (H1N1))
[15] = target: purified recombinant HA protein of H1N1 (A/Ohio/07/09) (Influenza A virus A/Ohio/07/09 (H1N1))
[16] = target: purified recombinant HA protein of H3N2 (A/Brisbane/10/07) (Influenza A virus A/Brisbane/10/07 (H3N2))
[17] = target: purified recombinant HA protein of H7N7 (A/England/268/96) (Influenza A virus A/England/268/96 (H7N7))
[18] = target: purified recombinant HA protein of H5N1 (A/Vietnam/1203/04) (Influenza A virus A/Vietnam/1203/04 (H5N1))
[19] = target: HA of A/Ann Arbor/6/60 ca (H2N2) virus (Influenza A virus A/Ann Arbor/6/60 ca (H2N2)); assay: cell-based or functional assay
[20] = target: HA of A/Ohio/07/2009 (H1N1) virus (Influenza A virus A/Ohio/07/2009 (H1N1)); assay: cell-based or functional assay
[21] = target: HA of A/Beijing/32/92-R-H3N2 PR8 virus (Influenza A virus A/Beijing/32/92 (H3N2)); assay: cell-based or functional assay
[22] = target: HA of A/Perth/16/09 (H3N2) virus (Influenza A virus A/Perth/16/09 (H3N2)); assay: cell-based or functional assay
[23] = target: HA of A/PuertoRico/8/34 (H1N1) virus (Influenza A virus A/PuertoRico/8/34 (H1N1)) (UniProt P03452); assay: cell-based or functional assay
[24] = target: HA of A/Ohio/83 (H1N1) virus (Influenza A virus A/Ohio/83 (H1N1)); assay: cell-based or functional assay
[25] = target: HA of A/ck/HK/G9/97 (H9N2) virus (Influenza A virus A/ck/HK/G9/97 (H9N2)); assay: cell-based or functional assay
[26] = target: HA of Anhui/1/05 (H5N1) virus (Influenza A virus A/Anhui/1/05 (H5N1)); assay: cell-based or functional assay
[27] = target: HA of A/Texas/05/2009 (H1N1) virus (Influenza A virus A/Texas/05/2009 (H1N1)); assay: cell-based or functional assay
[28] = target: HA of A/Sydney/5/97 (H3N2) virus (Influenza A virus A/Sydney/5/97 (H3N2)); assay: cell-based or functional assay
[29] = target: HA of A/Anhui/1/2013 (H7N9) virus (Influenza A virus A/Anhui/1/2013 (H7N9)); assay: cell-based or functional assay
[30] = target: HA of A/Shanghai/2/2013 (H7N9) virus (Influenza A virus A/Shanghai/2/2013 (H7N9)); assay: cell-based or functional assay
[31] = target: HA of A/Solomon Islands/2006 (H1N1) virus (Influenza A virus A/Solomon Islands/3/2006 (H1N1)); assay: cell-based or functional assay

Sequence of CT149 (antibody) (VH): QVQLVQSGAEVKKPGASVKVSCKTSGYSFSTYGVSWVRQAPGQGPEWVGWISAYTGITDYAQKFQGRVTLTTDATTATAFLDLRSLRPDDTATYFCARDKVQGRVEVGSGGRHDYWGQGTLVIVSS
Sequence of CT149 (antibody) (VL): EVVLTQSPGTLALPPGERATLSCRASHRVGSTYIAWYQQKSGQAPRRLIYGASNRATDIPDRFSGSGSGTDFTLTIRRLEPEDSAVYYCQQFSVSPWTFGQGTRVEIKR

CT149 (antibody)
Kd [1]: 0.183 nM | Kd [2]: 50.9 nM and 51.7 nM | koff [2]: 0.0379 s⁻¹ and 0.0387 s⁻¹ | kon [2]: 746000 M⁻¹ s⁻¹ and 747000 M⁻¹ s⁻¹ | Kd [3]: 33.6 nM and 34.1 nM | koff [3]: 0.0558 s⁻¹ and 0.0562 s⁻¹ | kon [3]: 1.66e+06 M⁻¹ s⁻¹ and 1.65e+06 M⁻¹ s⁻¹ | Kd [4]: 4.4 nM and 4.43 nM | koff [4]: 0.00176 s⁻¹ and 0.0018 s⁻¹ | kon [4]: 401000 M⁻¹ s⁻¹ and 406000 M⁻¹ s⁻¹ | Kd [5]: 1.77 nM and 1.85 nM | koff [5]: 0.000316 s⁻¹ and 0.000319 s⁻¹ | kon [5]: 179000 M⁻¹ s⁻¹ and 173000 M⁻¹ s⁻¹ | Kd [6]: 0.0502 nM and 0.0411 nM | koff [6]: 1.47e-05 s⁻¹ and 1.17e-05 s⁻¹ | kon [6]: 292000 M⁻¹ s⁻¹ and 285000 M⁻¹ s⁻¹ | Kd [7]: 86 nM and 91.3 nM | koff [7]: 0.00723 s⁻¹ and 0.00745 s⁻¹ | kon [7]: 84100 M⁻¹ s⁻¹ and 81600 M⁻¹ s⁻¹ | Kd [8]: 2.96 nM and 2.93 nM | koff [8]: 0.00391 s⁻¹ and 0.00386 s⁻¹ | kon [8]: 1.32e+06 M⁻¹ s⁻¹ | Kd [9]: 0.142 nM and 0.155 nM | koff [9]: 0.0028 s⁻¹ and 0.00285 s⁻¹ | kon [9]: 1.97e+07 M⁻¹ s⁻¹ and 1.83e+07 M⁻¹ s⁻¹ | Kd [10]: 0.165 nM and 0.201 nM | koff [10]: 0.00326 s⁻¹ and 0.00316 s⁻¹ | kon [10]: 1.98e+07 M⁻¹ s⁻¹ and 1.57e+07 M⁻¹ s⁻¹ | Kd [11]: 88.6 nM | Kd [12]: 0.0456 nM | Kd [13]: 0.149 nM | Kd [14]: 33.8 nM | Kd [15]: 51.3 nM | Kd [16]: 1.81 nM | Kd [17]: 4.41 nM | Kd [18]: 2.94 nM

CT-P27
EC50, microneutralization test [19]: 12.7 µg/mL | EC50, microneutralization test [20]: 0.29 µg/mL | EC50, microneutralization test [21]: 3.1 µg/mL | EC50, microneutralization test [22]: 3.99 µg/mL | EC50, microneutralization test [23]: 0.67 µg/mL | EC50, microneutralization test [24]: 0.73 µg/mL | EC50, microneutralization test [25]: 5.09 µg/mL | EC50, microneutralization test [26]: 8.02 µg/mL | EC50, microneutralization test [27]: 2.05 µg/mL | EC50, microneutralization test [28]: 6.53 µg/mL | EC50, microneutralization test (Contract Lab A) [29]: 2.38 µg/mL | EC50, microneutralization test (Contract Lab A) [30]: 3.55 µg/mL | EC50, microneutralization test (Contract Lab B) [30]: 13.1 µg/mL | EC50, microneutralization test [31]: 0.27 µg/mL
